Data reported in PMC10144703, “Molecular Mechanism of Sirtuin 1 Inhibition by Human Immunodeficiency Virus 1 Tat Protein” (Life, 2023).

Experiments:
human Sirt2 = biological target: T1, human Sirt2 (Homo sapiens, UniProt Q8IXJ6); experiment: Continuous coupled enzymatic assay, Sirt2; type: biochemical; details: 65 μM Tat-Cys^−, acetylated peptide at substrate Km, n = 3
T1 construct: Sirt2-(43-356) in a modified pET-19b; His6-Sumo; made in house; host or cells: E. coli CodonPlus(DE3)
T1 sequence (Q8IXJ6 43-356): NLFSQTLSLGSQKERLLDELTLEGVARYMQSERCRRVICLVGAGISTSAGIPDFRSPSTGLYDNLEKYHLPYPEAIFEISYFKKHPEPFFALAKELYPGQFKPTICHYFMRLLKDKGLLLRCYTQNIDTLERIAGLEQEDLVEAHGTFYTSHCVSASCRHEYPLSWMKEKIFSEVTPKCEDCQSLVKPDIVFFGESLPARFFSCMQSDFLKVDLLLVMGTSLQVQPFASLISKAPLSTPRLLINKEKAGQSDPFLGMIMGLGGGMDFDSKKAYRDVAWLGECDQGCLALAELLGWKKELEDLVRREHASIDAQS
Excerpt: A human mini-Sirt1 construct (aa 183-505-(GGGS)2-641-665), as described in [27], was generated in a modified pET-19b with a TEV cleavage site. This construct and human full-length Sirt1 (fl-Sirt1) in pET-15b, Sirt1-(183-664) and Sirt1-(214-664) in pET-15b, mini-Sirt1-∆SBD (aa 214-505-(GGGS)2-641-665) and mini-Sirt1-∆ESA (aa 183–505) in a modified pET-19b with TEV cleavage site, Sirt2-(43-356) in a modified pET-19b with a His6-Sumo tag, Sirt3-(93-399) in a modified pET-32a with Trx-His6 tag and TEV cleavage site, hSirt3-(118-399) in pVFT3S (Sungkyunkwan University, Seoul, Republic of Korea) with His6-Trx tag and TEV cleavage site, Sirt5-(34-302) in pET-151/D-TOPO, and Sirt6-(1-355) in pQE80L.1 were purified as described. […]
Continuous coupled enzymatic sirtuin activity assays were conducted as described. […] Reactions were monitored for 1 h at room temperature by absorption spectroscopy at 340 nm in a UV/vis plate reader (BioTek). The slope for the linear range (typically 5–25 min) was evaluated after background correction with measurements without NAD^+. Additional control reactions were run by either omitting enzyme or omitting peptide substrate to ensure that the signal measured reflects the NAD+-dependent deacetylation activity of the sirtuin.

mini-Sirt1 = biological target: T2, mini-Sirt1 (Homo sapiens, UniProt Q96EB6); experiment: DSSO crosslinking and MS analysis of mini-Sirt1/Tat-Cys^−; type: binding
T2 construct: aa 183-505-(GGGS)2-641-665; made in house; host or cells: E. coli CodonPlus(DE3)
T2 sequence (Q96EB6 with tags, fused parts or gaps limits assumed): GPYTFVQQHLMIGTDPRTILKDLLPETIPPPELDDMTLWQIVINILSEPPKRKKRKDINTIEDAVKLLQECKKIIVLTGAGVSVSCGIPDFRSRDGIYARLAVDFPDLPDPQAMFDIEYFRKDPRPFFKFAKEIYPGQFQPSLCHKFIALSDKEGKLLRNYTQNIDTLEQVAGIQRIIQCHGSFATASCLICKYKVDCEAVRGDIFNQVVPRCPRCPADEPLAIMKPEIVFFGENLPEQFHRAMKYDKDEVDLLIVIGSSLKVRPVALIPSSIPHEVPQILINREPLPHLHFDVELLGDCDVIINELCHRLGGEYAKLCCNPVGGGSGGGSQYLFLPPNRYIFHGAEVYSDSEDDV
Method: Prior to crosslinking, mini-Sirt1, and Tat-Cys^− were dialyzed separately at 4 °C in Xpress Micro Dialyzer tubes (Serva, MD300, cutoff 6–8 kDa) against 25 mM HEPES, pH 7.5, 150 mM NaCl, 5% (v/v) glycerol. Then, 50 µM of each protein was crosslinked at 20 °C with 2.82 mM disuccinimidyl sulfoxide (DSSO) in 5% (v/v) DMSO. Before the addition of the crosslinker, 10 µL was removed from the reaction (t = 0 min) and stopped by adding 1 µL 1 M Tris/HCl, pH 8.0. Likewise, at several timepoints after the addition of DSSO, 10 µL of the reaction was sampled. Reaction samples were supplemented with SDS sample buffer and separated on a 15% SDS-PAGE. Controls contained only one of the two proteins and were treated similarly to exclude self-crosslinking.
Crosslinked protein bands were cut out from SDS-PAGE gels and digested with 200 ng trypsin in 25 mM NH4HCO3, pH 8.0, at 37 °C overnight. The digested proteins were dried in a vacuum centrifuge, resuspended in 0.1% (v/v) FA, and injected onto a desalting column, followed by automated peptide separation with a C18 column (buffer A: 0.1% (v/v) FA, 5% (v/v) acetonitrile; buffer B: 0.1% (v/v) FA, 95% (v/v) acetonitrile). MS/MS spectra were recorded with an LTQ mass spectrometer (Thermo Fischer Scientific, Waltham, MA, USA) and CID-cleaved inter-protein crosslinks were analyzed with Byonic^TM (Protein Metrics Inc., San Carlos, CA, USA).

B1: Tat-Cys^−: Recombinant 86-residue HIV1 Zaire 2 Tat with C22S, C25A, C27A, C30S, C31A, C34S, and C37A (protein)
chain: MDPVDPNIEPWNHPGSQPKTASNRAHAKKSAYHSQVAFITKGLGISYGRKKRRQRRRPSQGGQTHQDPIPKQPSSQPRGDPTGPKE
In the case of B1, the “inhibitory effect on Sirt2, continuous assay” value (human Sirt2) is reported as “pronounced inhibitory effects”, the “crosslinking, SDS-PAGE” value (mini-Sirt1; 50 µM each protein, 2.82 mM DSSO, 5% (v/v) DMSO, pH 7.5, 20 °C) is reported as “a strong band for a linked complex” and the “crosslink site by MS” value (mini-Sirt1; DSSO crosslink, trypsin digest, MS/MS) is reported as “a crosslink between Tat-Lys71 and Sirt1-Lys238”.
